Measurements published in paper PMC8809517, “Cofactor-independent RNA editing by a synthetic S-type PPR protein”.
Numbering of substitutions follows the chain as printed.

T1: GFP-9S library array, motif 4 ND N98D (synthetic construct, N98D)
T1 chain: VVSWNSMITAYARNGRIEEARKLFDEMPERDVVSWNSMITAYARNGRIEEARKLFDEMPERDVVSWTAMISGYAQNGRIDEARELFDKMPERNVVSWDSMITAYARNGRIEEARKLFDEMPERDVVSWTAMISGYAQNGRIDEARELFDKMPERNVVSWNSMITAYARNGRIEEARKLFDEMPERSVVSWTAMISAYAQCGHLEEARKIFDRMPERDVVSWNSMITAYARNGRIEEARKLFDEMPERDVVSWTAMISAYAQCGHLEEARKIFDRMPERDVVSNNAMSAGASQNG

T2: GFP-9S library array, motif 4 ND N98C;D124H (synthetic construct, N98C;D124H)
T2 chain: T1 chain with D98C, D124H

T3: GFP-9S library array, motif 4 ND N98Y;D124I (synthetic construct, N98Y;D124I)
T3 chain: T1 chain with D98Y, D124I

T4: GFP-9S library array, motif 4 ND N98E;D124E (synthetic construct, N98E;D124E)
T4 chain: T1 chain with D98E, D124E

T5: GFP-9S library array, motif 4 ND N98R;D124A (synthetic construct, N98R;D124A)
T5 chain: T1 chain with D98R, D124A

B1: Cy5-rpoA (ssRNA)
RNA: AUUACACGUGA
B2: IR-rpoA-A (ssRNA)
RNA: AUUAAACGUGA
B3: Cy5-rpoA-G (ssRNA)
RNA: AUUAGACGUGA
B4: IR-rpoA-U (ssRNA)
RNA: AUUAUACGUGA

Columns and labels:
Assay in all cases: high-throughput RNA pulldown from lysate on Ni-NTA beads; HRP: 50 mM Tris pH 8, 150 mM NaCl, 1 mM beta-mercaptoethanol, 50 ug/ml BSA, 3 ug/ml yeast RNA, 0.5% heparin; ITC and FP: Tris pH 8, 200 mM KCl, 5% glycerol; MST: 50 mM Tris pH 8, 200 mM NaCl, 1 mM DTT, BSA, heparin, 0.05% Tween 20
Conditions in all cases: tags: N-terminal His-eGFP
[1] = biological target: T1, GFP-9S library array, motif 4 ND N98D
[2] = biological target: T2, GFP-9S library array, motif 4 ND …
[3] = biological target: T3, GFP-9S library array, motif 4 ND …
[4] = biological target: T4, GFP-9S library array, motif 4 ND …
[5] = biological target: T5, GFP-9S library array, motif 4 ND …

Row | Binder | Kd ([1]; label: 5' Cy5) | Kd ([2]; label: 5' Cy5) | Kd ([3]; label: 5' Cy5) | Kd ([4]; label: 5' Cy5) | Kd ([5]; label: 5' Cy5) | Kd ([1]; label: 5' IRDye 800CW) | Kd ([2]; label: 5' IRDye 800CW) | Kd ([3]; label: 5' IRDye 800CW) | Kd ([4]; label: 5' IRDye 800CW) | Kd ([5]; label: 5' IRDye 800CW)
1 | B1 | 395 nM | 124 nM | 109 nM | 248 nM | 75.1 nM | – | – | – | – | –
2 | B2 | – | – | – | – | – | 531 nM | 25.4 nM | 347 nM | 387 nM | 145 nM
3 | B3 | 55.1 nM | 57.7 nM | 112 nM | 169 nM | 89.4 nM | – | – | – | – | –
4 | B4 | – | – | – | – | – | 315 nM | 152 nM | 340 nM | 675 nM | 114 nM
